{"source": "the DeepSol protein solubility set"}
{"experiment": "soluble on expression in E. coli; label from the status in PepcDB or PDB records"}
{"sequence": "FVNKDQIAKDVKQFYDQALQQAVVDDDANNAKAVVKTFHETLDCCGSSTLTALTTSVLKNNLCPSGSNIISNLFKEDCHQKIDDLFSGKH", "soluble on expression in E. coli": "soluble"}
{"sequence": "ATTGTQGYTVVKNDWKKAVKQLQDGLKDNSIGKITVSFNDGVVGEVAPKSANKKADRDAAAEKLYNLVNTQLDKLGDGDYVDFSVDYNLENKIITNQADAEAIVTKLNSLNEKTLIDIATKDTFGMVSKTQDSEGKNVAATKALKVKDVATFGLKSGGSEDTGYVVEMKAGAVEDKYGKVGDSTAGIAINLPSTGLEYAGKGTTIDFNKTLKVDVTGGSTPSAVAVSGFVTKDDTDLAKSGTINVRVINAKEESIDIDASSYHMSLEHHHHHH", "soluble on expression in E. coli": "soluble"}
{"sequence": "MGSDKIHHHHHHMKTLQYSFAQIEAFATIAETGSLSQAAIRLAKDRTTLRDLLDYLEDALGYRLFSREGRSLTLTAEGEQLFRQAHLLLRQAQAFESFAQTLPQTAGQALRLVYDPFVPREFLCALADNLARRQIRLSCWSASRREAEQALSDGVAEMAICQANNRTLGSEMEWRALGTVDLRFYAADSLFHDAPRPLTLLNLSLTPQLVMHRRSDDQIARRLQISGHTLYMNEITLLRHALEQGRGWGFLPDHLRPGEWQGVSEIATEVGSQGLNVTMVMLWLPGMNKHRMLSDIVHEAPELWLRR", "soluble on expression in E. coli": "not soluble"}
{"sequence": "MSLLQVAPSAYRRHAARQRCPKLRSARSQRDEGLMAEIRRVWQANMQVYGVRKVWYQLQREGIAVARCTVERLMRRLGLQGVRRGKRVRTTIADGSQACSLDRVNRHFHADRPNQLWVSDFTYVSTWQGWLYVAFVIDVFARRIVGWRVSTTMSTDFVLDALEQALYDRRPAESLIHHSDRGSQYVSIRYTERLAEAGIEPSVGSRGDSYDNALAETINGLYKAELIHRRAPWKTRAAVELATLEWVAWYNHQRLLGSIGYIPPAQAEELYHRTHSETVPMNAVLEGHHHHHH", "soluble on expression in E. coli": "not soluble"}
{"sequence": "MGSDKIHHHHHHMSLKMKLIYVVESSVPYGANKCLIEIIDRLDKDKHEVMVVGADEGALSSWLRERNVSYVSLNHRLSIYPVLNSRKDYLLWLPRLFRRVALNVIAMVKFFKICKRFKPDIVHTNVGPCSLGYFVATYLGIKHVWHVREYQDLDFGMSFFPNRKAFLKRLKRSDAVICITNSIAAHFHLTDNENLAVINDGVISDEKEIDIIQKENYFLFAGRLEAAKGIEEAIESFFEFCETDSSGISFYVAGDGNFNYLKKLKEKVSKSNFSNRVRFLGFRDDIFALMRMAKALVVASRCEGFGLITAEAMYQGTLVIGRDTGGTSEILKDSKGIHYGFLFNSIDELTKLMHEVVDLSPDEYTKMARSAQRRTLDKYTINRNFREISDVYNTLM", "soluble on expression in E. coli": "not soluble"}
{"sequence": "MSLGVKVDESFCLSDRDHIRKRPNMYVGSVNREAHERFIMGKFRKVEYVEGLVKIINEILDNSIDEAIRTDFKFANRIEVKIDHNLVTISDNGRGIPQDDVRTPEGKIVPKPVAAWTMAKSGSNFDDENRVTMGMNGVGSFLTNCYSSIFIGETSNGKRKVTINCTDGAQNMDYRTSPTKEQGTTVKFTPDFSIFGVDGIDEETKEVIKDRLMALAVAFPSVKFTYNGETLPNKFAMYGAMYGDSTITQTNNKISFILASTEDGFKQKSFVNGLDTKNGGVHVDCMIDGIYAELEPMIKKKHAIEIPKARVKECLTLVVFLHNFNAPAFDSQTKEKLTNTAGEFNNHAGLNYKKIAKQIMDTSEIITPIIESALIRKQAAEAAAITKEGHHHHHH", "soluble on expression in E. coli": "soluble"}
{"sequence": "MGSDKIHHHHHHMSFKDIQADFIEAIRRPDLPCPHGIAPQRMGVYRELFFNNVSGFVNSGFPVLKSLYGEAQWQAQLRQFFTEHDCQNPLFIGIAGEFLAFLSARERQVDEPPFLLELAHYEWLELVVATAMEQGDEAAFDDTALAQQAYLDARLGLASHARVAQYHFEVEKISPQYQPDTPLPSPCYFCLYRDSDDEVSFLKLNPMTAQLLAVLEANTGIKYIELLQKMQALYPNFDGQQLREGIAQVLGQMAVRGVVVQKLQ", "soluble on expression in E. coli": "not soluble"}
{"sequence": "MGSDKIHHHHHHVVDVAHAVKPMSVPQRIEQASRHDLLVLSSQSGPRQSAWSSLTSALGGQDIDDHAGMPCRRVMLMLAEHEAELLRRECQLIPIVGADAVAQSVTLTKKAVPGNWCAWGVLDRDAAQQHLDAKIVSMGARLRDEPAFGLMFSCLARGPHFYDGVDQDIALLKRYYPSMPVIGFYGNGEIAPLNGRNVLWQNSVVLGLFTAES", "soluble on expression in E. coli": "not soluble"}
{"sequence": "MAVPGFTFDEALLTEIAASFQLRASNINALTALVQRLSGDFDRSTPQVMNMATGAGKTYVMAAFIEYMRRQGLRNVMIVTPGLVVQTKTVANFTQGSPKFIDGSPVPPRVVTPENYKSNPADQTAFTEQGASNVYVFNVQQLIGPKDMDGDTTSGSKAAVARGVHKFSEYAGVLYDELKNMDDLVVLADEHHLYSAKAKAFHAAIHDLEPAALVGLTASPGEKDETIFTYPLYKAIADKNVKQPVIVYRKDGYGELGEYQQLKDAKTLLETKAGHYAVKNQEEGTSPISPVMLVVCEDIAHATRIEETLVGPDLFGDPYAVLRVDSDSMNEEKAALLDAIDTPDSPVRAVVSVNKLKEGWDCRSIAVMVTLRAMDSDILTQQTLGRGLRLPYGKYAEVEAIDTLDIVAHESFQRLLSSEKVNKSFGFDKRKTSQPAPPQPVHPMDVTPPTPVPTPDLDPVPGGNTTAPTPVLPPADPQPVAPDLDKGTDTRPPLGLKELGGDGASPEDLYPEPTPLAVVELVEKFRDVSFLFPRTTYTAKNAAYPLEKLMQDEIIQVARQITDNPQAVLERLALAGDEAQGRVMAKRLTQGTIDAIALDEDAVKKQLVGAIITHRRVERSPENISQAKNRIAPLIYNNALATTWTVDTLHVASILLGKAIDASVRQFLANLEPDVTLVPLTMPTRTRFELGVGKTIEPRPGEFDKYINGQFYSGWTRNLYTAASFDSNSAEHKLACDLDVSPDVEWWTRLYMADGASIDYQVGKTYYPDFVVRDREGRTWIVEGKDAGGRTNEEVKAKRDAAELALNLMASNEDMGALKVGYIIAYEDTIKEAGSWSRLISMSGAVKSAN", "soluble on expression in E. coli": "not soluble"}
{"sequence": "MKKTFEKVYHLKLSIKGITPQIWRRIQVPENYTFLDLHKAIQAVMDWEDYHLHEFEMVNPKTGMLDKIGAEGDDFDAFGGPLVSEKKAKLSDYFTLENKEALYTYDFGDNWQVKVRLEKILPRKEGVEYPICTAGKRAAVPEDSGGVWGYEEMLEVLKDSEHEEYEDTVLWLGDDFDPEYFDPKDVSF", "soluble on expression in E. coli": "soluble"}
{"sequence": "MKKLAVLFMCAAMLASCDFKGGSKDLKAENDSLLMELTQRNAELDDMMGTFNEVQEGFRKINAAESRVDLQRGTITENSASAKQQIASDIEFISKQMEENKAQIAKLEAQLKNSKYNSTQMKKAVEALTAELKAKQQRIEELQTELASKNIRIQELDAAVSDLSAAKESLAAENEAKAKTVAEQDKSLNAAWFVFGTKSELKAQKILQSGDVLKSADFNKDYFTQIDIRTTKEIKLYSKRAELLTTHPTGSYELVKDDKGQLTLKITNPAEFWSVSRYLVIQVK", "soluble on expression in E. coli": "not soluble"}
{"sequence": "EVQLQESGPGLVKPYQSLSLSCTVTGYSITSDYAWNWIRQFPGNKLEWMGYITYSGTTDYNPSLKSRISITRDTSKNQFFLQLNSVTTEDTATYYCARYYYGYWYFDVWGQGTTLTVSSAKTTAPSVYPLAPVSSVTLGCLVKGYFPEPVTLTWNSGSLSSGVHTFPAVLQSDLYTLSSSVTVTSSTWPSQSITCNVAHPASSTKVDKKIEPR", "soluble on expression in E. coli": "soluble"}
{"sequence": "MGSDKIHHHHHHMVIIHSKDLVNWTIKGHVVSDLRQISEEMNWTRMNRYGRGIWAGAIRYYQGKFYVYFGTPDEGYFMSTATDPAGPWEPLHCVKAEKGWDDCCPFFDDDGQLYFVGTHFADKYKTYLYRMTPDGKTLIENSKILINEGYGREASKLYKINGTYYHFFSEVKNGGRYIMMQRSSSITGPYLERKQLSHVQREYNEPNQGGLVEGPDRKWYFFTHHGTGDWAGRIASLLPVYWVDGWPIIGEVGQDGIGTMVWQAAKPSNEYPVRTPQSSDDFSKSVLSPQWEWNYQPRDEMWSLTERPGNLRLKAFRPLVTDNLLKAGNTLTQRCFRTNKNEVIVKMNIEGMVDGQKAGLCHYSKSYAMVGVRQSGKDRNLEFQTNKEKITGPAIKGNKVWIKSVWGLDGKSQFSYSTDGRKFTPFGEVYQLEWGYYRGSRIGIYCFNNIADAGYIDVDEFIYLY", "soluble on expression in E. coli": "not soluble"}
{"sequence": "MSKTHLTEQKFSDFALHPKVVEALEKKGFHNCTPIQALALPLTLAGRDVAGQAQTGTGKTMAFLTSTFHYLLSHPAIADRKVNQPRALIMAPTRELAVQIHADAEPLAEATGLKLGLAYGGDGYDKQLKVLESGVDILIGTTGRLIDYAKQNHINLGAIQVVVLDEADRMYDLGFIKDIRWLFRRMPPANQRLNMLFSATLSYRVRELAFEQMNNAEYIEVEPEQKTGHRIKEELFYPSNEEKMRLLQTLIEEEWPDRAIIFANTKHRCEEIWGHLAADGHRVGLLTGDVAQKKRLRILDEFTRGDLDILVATDVAARGLHIPAVTHVFNYDLPDDCEDYVHRIGRTGRAGASGHSISLACEEYALNLPAIETYIGHSIPVSKYNPDALMTDLPKPLRLTRPRTGNGPRRTGAPRNRRRSG", "soluble on expression in E. coli": "soluble"}
{"sequence": "MNRFIIADATKCIGCRTCEVACAVSHHENQDCAALSPDEFISRIRVIKDHCWTTAVACHQCEDAPCANVCPVDAISREHGHIFVEQTRCIGCKSCMLACPFGAMEVVSSRKKARAIKCDLCWHRETGPACVEACPTKALQCMDVEKVQRHRLRQQPV", "soluble on expression in E. coli": "not soluble"}
{"sequence": "MAHHHHHHMAESAVLTPLSARHTVSPRDRSALATGISTLSSPTEETIEVDGATTTPSLPPETRVNVTEKLSDDGAERWPGDPEPPSQGCVASSSAANAHLPISSPALVRDEGHAHITAADYADRQRLLYHITYLSTQLQRAQLQVEDLTRTVCVLRGAVGDSAAATVAKAAVKEDATSAAVLAAKEERDVHAALQASLALFDPVIAQTQIYRLDDALAQVGLLREAELAQLRKANAALQDHRTFVSRLSEELAQLRSKTATLEQEKQRTETQLTAAVLEVEQLRYEERRLNNRVAGLEELAQDGTWMSNVRVVSAAAASTQASVSQQQPLVRLEREEQLARQALLLHVFWDPVLIAFDAGLTWLSDSAALQAKGSAAQEQPVAPGGAKAFVGERDLISLAQAGILVETPALPTDADLLLLQRQQEEVTQLRSRVQLLQERNRVGQLENERLQFLYEGEVRRNERMAKDHAAQLQQAYDEVVRDRQYIMNKLKQEVEDQIRLAYEDGRAYEQSRAKSRRSQKAFRAGNAVL", "soluble on expression in E. coli": "not soluble"}
{"sequence": "MGSDKIHHHHHHMYLESIELYSNITKAAAHLFISQPYLSKVIKQLENELEIKLIQSQGHQTFLTYAGQRYLFYLKEIDMIERQMAKELYLIRSDKKGEITLGINSGLASSILANVLPKFNLEHPEISVKLLENNQNISEQLVASGDIDLAVGMAPILYKDGIASTTIYRDELFLMIPTTSQLYNAEKRGQIIPFEYPISVLDNEPLILTPLEYGIGKTIAQFYELHHMSLNQMITTSTVPTAASLSLSGMGATFVPQTLIHRYLDKECNVYHFHKNKLFSEYIMIYKKDVELSGIALLLYKAFLTK", "soluble on expression in E. coli": "not soluble"}
{"sequence": "MNETSHEASECPAAVITGGARRIGHSIAVRLHQQGFRVVVHYRHSEGAAQRLVAELNAARAGSAVLCKGDLSLSSSLLDCCEDIIDCSFRAFGRCDVLVNNASAYYPTPLLPGDDTNGAADAKPIDAQVAELFGSNAVAPLFLIRAFARRQGEGGAWRSRNLSVVNLCDAMTDLPLPGFCVYTMAKHALGGLTRAAALELAPRHIRVNAVAPGLSLLPPAMPQETQEEYRRKVPLGQSEASAAQIADAIAFLVSKDAGYITGTTLKVDGGLILARA", "soluble on expression in E. coli": "soluble"}
